This is an account of results in patent US20260226161A1 (EXELIXIS, published 2026).

As usually defined, the EC50 is the midpoint of the concentration-response curve. By Kd is commonly meant a measure of binding affinity in units of concentration. A word on the koff: it is the rate constant with which the complex falls apart. Low values mean a long-lived complex, high ones a short-lived complex. One may read the kon as a measure of how fast the partners come together. Low values mean slower complex formation, high ones faster complex formation.

The target of assay [1] is T1, NKG2A expressed on KHYG-1 cells (endogenous) (human, UniProt P26715 1-233; Q13241 1-179).
T1 construct: whole, on cells; Surface NKG2A copy number of approximately 10-20K; also called KHYG-1 cells expressing endogenous NKG2A; NKG2A-expressing cells
As to the kind of experiment: flow cytometry on KHYG-1 cells expressing endogenous NKG2A. Here is the method:
(§1) Cells were collected by centrifugation at 400×g for 7 minutes and primary antibody was removed. 50 μL per well of AF488 goat anti human IgG Fab (Jackson Immuno Research 109-547-003) at 1:100 dilution was added. Plates were placed at 4° C. for 30 minutes.
(§2) Cells were collected by centrifugation at 400×g for 7 minutes and secondary antibody was removed. Cells were resuspended in 50 μL per well of PBS and analyzed by flow cytometry. Binding curves were calculated using the mean fluorescence intensity (MFI) of the FITC fluorescence signal on the cells. Bispecific antibody binding was evaluated in KHYG-1 cells expressing endogenous NKG2A and in MC/CAR cells expressing PD-L1. Cells were harvested and assayed for binding as described above.
A general note: In flow cytometry, cells or beads pass a laser one at a time.

Assay [2] addresses T2, CD94 (in the NKG2A/CD94 heterodimeric ectodomain complex) (UniProt Q13241 32-179).
T2 construct: extracellular domain; Tested only as part of the complex; also called CD94 protein
T2 sequence (looked up): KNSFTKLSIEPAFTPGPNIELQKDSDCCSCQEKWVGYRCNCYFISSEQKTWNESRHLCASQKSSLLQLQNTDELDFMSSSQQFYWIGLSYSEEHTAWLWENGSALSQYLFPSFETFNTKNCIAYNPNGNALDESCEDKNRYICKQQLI
As to the kind of experiment: HDX-MS on the NKG2A/CD94 ectodomain complex. Here is the method: Two different Quench conditions were used for digestion to improve the coverage. Both Data sets 1 and 2 were collected for 3 different timepoints (2, 10, and 60 mins) in triplicate. D₂O Buffer used was 20 mM Phos, 150 mM NaCl, pH 7.4. The relative fractional uptake greater than 5% was considered significant in the analysis.
Leap HDX auto sampler and Waters Cyclic IMS MS were the instruments used.
Quenching: The exchange reaction was quenched by a shift to acidic pH and a temperature drop (two proprietary conditions were used-potential variation in buffer formulation included the use of denaturants or reducing agents).

Assay [3] deals with T3, Human PD-L1 with His tag (AcroBiosystems) (human, UniProt Q9NZQ7 19-238).
T3 construct: Bought protein; also called hPD-L1; not shown: His tag
T3 sequence (Q9NZQ7 19-238 limits assumed): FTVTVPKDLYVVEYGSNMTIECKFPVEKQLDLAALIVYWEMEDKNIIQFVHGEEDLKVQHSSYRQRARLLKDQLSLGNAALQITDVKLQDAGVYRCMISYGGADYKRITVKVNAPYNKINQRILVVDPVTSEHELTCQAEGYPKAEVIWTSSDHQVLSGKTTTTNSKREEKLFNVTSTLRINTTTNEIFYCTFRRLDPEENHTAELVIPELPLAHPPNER
As to the kind of experiment: SPR (Carterra), antibody on chip, soluble antigen.

For assay [4], the target named is Cyno PD-L1 (cyno, UniProt G7PSE7 19-238). As to the kind of experiment: SPR (Carterra), antibody on chip, soluble antigen.
Chain of Cyno PD-L1 (G7PSE7 entry or part of it limits assumed): as the sequence (Q9NZQ7 19-238 limits assumed) above, with A33T, A34S, S62N, R68Q, Q82R, F173L, T185A, T192I, H215L counted along it
Assay [5] deals with T4, Human NKG2A & CD94 with mouse IgG2a Fc tag (AcroBiosystems) (human, UniProt P26715 94-233; Q13241 32-179, limits assumed).
T4 construct: Bought soluble antigen of the Carterra assay; also called hNKG2A; not shown: mouse IgG2a Fc tag
T4 sequence (P26715 94-233 limits assumed, one chain of several): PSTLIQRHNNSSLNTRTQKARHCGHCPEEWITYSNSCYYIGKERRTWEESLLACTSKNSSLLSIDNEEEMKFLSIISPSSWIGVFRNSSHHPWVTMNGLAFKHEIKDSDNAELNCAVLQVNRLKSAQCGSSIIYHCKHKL
As to the kind of experiment: SPR (Carterra), antibody on chip, soluble antigen.

Assay [6] addresses T5, cynomolgus NKG2A/CD94 (soluble antigen of the equilibrium assay) (cynomolgus, UniProt Q68VD2 94-233; Q68VD4 32-179, Biotinylated in the Octet assays of Example 2; state in the SPR equilibrium assay not seen.).
T5 construct: also called Cyno NKG2A/CD94; copies: 1 + 1
As to the kind of experiment: SPR equilibrium response, Langmuir isotherm; antibody on chip, soluble antigen. Here is the method:
In addition, a method using an equilibrium approach was performed. Kd determinations for cynomolgus NKG2A/CD94 were performed by measuring the signal response at equilibrium. […] The equilibrium response signals and corresponding antigen concentrations were then input into a Langmuir binding isotherm model, and the Kd was determined through nonlinear regression. Averages and standard deviations were calculated from 24 replicate chip locations for each molecule.

For assay [7], the target named is T6, PD-L1 expressed on cells (UniProt Q9NZQ7 19-290, limits assumed).
T6 construct: whole, on cells; also called MC/CAR cells expressing PD-L1; PD-L1+MDA-MB-231 cells
T6 sequence (Q9NZQ7 19-290 limits assumed): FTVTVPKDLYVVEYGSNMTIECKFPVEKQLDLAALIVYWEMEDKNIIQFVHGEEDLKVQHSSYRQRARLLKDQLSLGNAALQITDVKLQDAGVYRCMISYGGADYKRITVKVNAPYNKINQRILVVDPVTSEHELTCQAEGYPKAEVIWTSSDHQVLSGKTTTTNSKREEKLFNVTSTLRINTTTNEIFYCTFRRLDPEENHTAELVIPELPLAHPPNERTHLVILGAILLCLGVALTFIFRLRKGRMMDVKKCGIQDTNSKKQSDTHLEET
As to the kind of experiment: flow cytometry on MC/CAR cells expressing PD-L1. Here is the method:
as §1, §2

The target of assay [8] is T6, PD-L1 expressed on cells. As to the kind of experiment: cell-based or functional assay.
The target in assay [9] is T1, NKG2A expressed on KHYG-1 cells …. As to the kind of experiment: flow cytometry competition; inhibition of HLA-E tetramer binding to KHYG-1 cells. Here is the method: 15 μL per well of binder dilution at 2× concentration was plated in a 96-well plate (Costar 3897). 15 μL per well of cell suspension at 5×10⁶ cells per mL was added. Plates were placed at 4° C. for 30 minutes. Following the incubation, 5 μL per well of Fc block (BD Pharmingen Cat #564220) was added at a final concentration of 500 ng per well. Plates were placed at 4° C. for 10 minutes. […] Plates were placed at 4° C. for 1 hour. Following the incubation, 100 μL per well of PBS was added and plate was centrifuged at 400×g for 7 minutes. Supernatant was removed by flicking the plate. Cells were resuspended in 50 μL per well of PBS and analyzed by flow cytometry (Intellicyt).

In assay [10] the target is T6, PD-L1 expressed on cells. As to the kind of experiment: cell-based or functional assay. This is another data set of the same source.
The target of assay [11] is T1, NKG2A expressed on KHYG-1 cells …. As to the kind of experiment: cell-based or functional assay.
Assay [12] addresses T7, biotinylated human NKG2C/CD94 heterodimer (extracellular domains, Fc fusions) (human, UniProt P26717 94-231; Q13241 32-179, biotinylated).
T7 construct: not shown: N-terminal Fc (hole)
As to the kind of experiment: selection summary of Examples 2-5 (Octet binding). In general terms: In BLI a coated tip is dipped into the sample, and binding shifts an interference pattern.

Assay [13] addresses T8, biotinylated cyno NKG2A/CD94 heterodimer (extracellular domains) (cynomolgus, UniProt Q9MZJ3 94-233; Q9MZK9 32-179, biotinylated).
T8 construct: also called Cynomolgus NKG2A protein; not shown: fusion partner/tags ('similar approach' to the human proteins); fusion partner ('similar approach')
As to the kind of experiment: selection summary of Examples 2-5 (Octet binding).

The target in assay [14] is T1, NKG2A expressed on KHYG-1 cells …. As to the kind of experiment: flow cytometry on KHYG-1 cells expressing endogenous NKG2A. Here is the method: Antibodies that were selected for binding to NKG2A, for example, such as those described in Examples 1 and 2, were evaluated for binding to cells that express NKG2A.
Cells were harvested at 70-90% confluence on the day of the assay. Cells were collected by centrifugation at 200×g for 5 minutes and media was removed. Cells were resuspended at 2×10⁶ cells per mL in cold PBS. […] 50 μL per well of the antibody dilution was plated in a 96 well V-bottom plate (Costar 3897). 50 μL per well of cell suspension was added. Plates were placed at 4° C. for 45-60 minutes.
The source holds these as a separate data set.

T8 sequence (Q9MZJ3 other isoform, or with tags, fused parts or gaps, chain 1 of 2): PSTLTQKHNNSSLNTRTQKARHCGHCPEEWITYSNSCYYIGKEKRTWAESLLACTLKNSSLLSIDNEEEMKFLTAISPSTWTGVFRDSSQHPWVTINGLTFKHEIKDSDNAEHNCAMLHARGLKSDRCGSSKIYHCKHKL
T8 sequence (Q9MZK9 32-179, chain 2 of 2): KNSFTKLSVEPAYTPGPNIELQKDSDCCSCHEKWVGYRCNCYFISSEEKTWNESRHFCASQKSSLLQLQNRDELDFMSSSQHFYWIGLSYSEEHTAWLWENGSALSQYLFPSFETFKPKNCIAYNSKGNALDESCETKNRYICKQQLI
T5 sequence (NKG2A, as listed by the source limits assumed, chain 1 of 2): as the sequence (Q9MZJ3 other isoform, or with tags, fused parts or gaps, chain 1 of 2) above
T5 sequence (CD94, as listed by the source limits assumed, chain 2 of 2): as the sequence (Q9MZK9 32-179, chain 2 of 2) above
T7 sequence (P26717 other isoform, or with tags, fused parts or gaps): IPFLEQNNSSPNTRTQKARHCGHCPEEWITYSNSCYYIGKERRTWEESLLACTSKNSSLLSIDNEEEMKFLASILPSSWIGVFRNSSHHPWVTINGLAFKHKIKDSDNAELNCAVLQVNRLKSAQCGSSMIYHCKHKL

B1: P12 × A11 (1 × 1 format) (bispecific antibody)
heavy 1: DIQMTQSPSSLSASVGDRVTITCRASQSVSSAVAWYQQKPGKAPKLLIYSASSLYSGVPSRFSGSRSGTDFTLTISSLQPEDFATYYCQQFMLEPITFGQGTKVEIKGQPREPQVCTLPPSRDELTKNQVSLTCLVRGFYPSDIAVEWESNGQPENNYKTTPPVLDSDGSFFLYSKLTVDKSRWQQGNVFSCSVMHEALHNHYTQKSLSLSPGKDKTHTCPPCPAPEAAGGPSVFLFPPKPKDTLMISRTPEVTCVVVDVSHEDPEVKFNWYVDGVEVHNAKTKPREEQYNSTYRVVSVLTVLHQDWLNGKEYKCKVSNKALKAPIEKTISKAKGQPREPQVYTLPPSREEMTKNQVSLSCAVKGFYPSDIAVEWESNGQPENNYKTTPPVLDSDGSFFLVSKLTVDKSRWQQGNVFSCSVMHEALHNHYTQKSLSLSPGK
light 1: EVQLVESGGGLVQPGGSLRLSCAASGFTFSSYYIHWVRQAPGKGLEWVATINSRGGFTLYADSVKGRFTISADTSKNTAYLQMNSLRAEDTAVYYCARGYTLTPVLDYWGQGTLVTVSSAQPREPQVYTLPPCRDWLTKNQVSLTCLVKGFYPSDIAVEWESNGQPENNYKTTPPVLDSDGSFFLYSKLTVDKSRWQQGNVFSCSVMHEALHNHYTQKSLSLSPGK
heavy 2: not shown
light 2: EVQLVESGGGLVQPGGSLRLSCAASGFTFSWYYIHWVRQAPGKGLEWVAVIDPISSYTYYADSVKGRFTISADTSKNTAYLQMNSLRAEDTAVYYCARGFDRAMDYWGQGTLVTVSSASTKGPSVFPLAPSSKSTSGGTAALGCLVKDYFPEPVTVSWNSGALTSGVHTFPAVLQSSGLYSLSSVVTVPSSSLGTQTYICNVNHKPSNTKVDKKVEPKSC
notes: One PD-L1 site, one NKG2A site; also called P12×A11, sFc; P12×A11 (sFc)
B1: the EC50 in [1] came out at 2.8 nM; in assay [7], 2.17 nM; in assay [9] it was 66 nM. Also, the binding result in assay [2] is recorded as “no binding”. The Kd in [3] was determined as 0.17 nM; in assay [4], 0.11 nM; in [5], 0.38 nM; in assay [6], 49 nM. The off-rate constant (koff) in assay [3] came out at 8e-05 s⁻¹; in assay [4] it was 6e-05 s⁻¹; in assay [5], 9e-05 s⁻¹. Further, the kon is 470000 M⁻¹ s⁻¹ in assay [3], 540000 M⁻¹ s⁻¹ in assay [4] and 240000 M⁻¹ s⁻¹ in assay [5]. Besides, in [8], the “IC50 of inhibiting PD-1/PD-L1 interaction in PD-L1+MDA-MB-231 cells (PD-1/PD-L1 Signaling Bioassay, chemiluminescent signal)” value was 0.557 nM. For the same molecule, the “EC50 (read off the curve) of doublet formation between NKG2A+ KHYG-1 and PD-L1+ LCL721.221-PD-L1 cells” value in assay [10] and in [11] was around 0.2 nM throughout.

B2: Antibody Clone A42 (antibody, human IgG1, kappa, V domains shown)
VH: EVQLVESGGGLVQPGGSLRLSCAASGFTFSWYYIHWVRQAPGKGLEWVAVIDPISSYTYYADSVKGRFTISADTSKNTAYLQMNSLRAEDTAVYYCARGFDRAMDYWGQGTLVTVSS
VL: DIQMTQSPSSLSASVGDRVTITCRASQSVSSAVAWYQQKPGKAPKLLIYSASSLYSGVPSRFSGSRSGTDFTLTISSLQPEDFATYYCQQYYSSPYTFGQGTKVEIKR
For the molecule B2, the binding result is “no binding” in [12] and “binds” in [13]. The same molecule had a half-maximal effective concentration (EC50) in assay [14] of 26.7 nM.
